Assay: yeast display, Sf9 membrane polyspecificity reagent, FACS + sequencing; frameworks hold sequencing errors
Outline: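 Using colony PCR, genes from sorted yeast display clones were amplified, then sequenced on MiSeq at 2 × 250 and filtered by CDR length. The clones had been stained with 10% biotinylated, detergent-solubilized Sf9 membrane reagent for 1 hour at 4 °C and sorted by FACS into low and high (top ~1%) gates on anti-HA and streptavidin fluorescence. Polyreactivity labels come from the gate of origin.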

| Sequence | polyreactivity (PSR sort gate) |
| --- | --- |
| QVQLVESGGGLVQEGGSLRVSCAASGRTFRWYTMGWYRQAPGKEREFVAAITWSGSSTNYADSVKGRFTISRDNAKNTVYLQMNSLKPEDTAVYYCAGEKRRRRDDYWGQGTHVTVSS | high polyreactivity |
| QVQLVESGGGLVQERGSLRLSCAASGRIFGKYAMAWYRLAPGKERELVATISYGGGNTYYADSVKGRFTISRDNAKNTVYLQMNSMKPEDTAVYYCARVPYAYLRYKPFQQYSYDYWGQGTKVTVSS | high polyreactivity |
| QVQLVESGGGLVQEVGSLRLSCAASGSTIYWYAMGWSRQAPGKEMEIVAAISLGSGSTYYADSVKGRFTISRDNAKNTVYLQMNSLKPEDTAVYYCATRGSAWGRSYYYWGQGTQVTVSS | high polyreactivity |
| QVQLVESGGGLVQGGGSLRLRCAASGSILLYYTMGWYRPAPGKERELVAAISWSGVSTYYADSVKGRFTISRDNPMNTVYLQMISLKPVDNEVYYCGTRSVQGSYFAGYCYWGQGPQVTVSS | low polyreactivity |
| QVQLVESGGGLVQGGGSLRLSCAASGRIFGHYVMGSYRQAPGKERELVAAISYSGGSTYYADSVKGRFTISRDNAKNTVYLQMNSLKPEDTAVFYCAARVTQDSPYGAYYYWGQGTQVTVSS | high polyreactivity |
| QVQLVESGGGLVQGGGSLRLSCAASGRIFGVNAMGWYRQAPGKERELVATITSGTSTYYADSVKGRFTIARDNATTTVYLQITSLKPEDTAVYYSATSRVIPWDYDSWGQGTQVTVSS | low polyreactivity |
| QVQLVESGGGLVQGGGSLRLSCAASGRIFTRYTMGWYRPAPGKERELVAASTKRADRTNYADSVKGRFTISRDNAKNTVYLQMNSLKPEDTAVYSCNDAAFSQLRVRYDYWGQGTQVTVSS | low polyreactivity |
| QVQLVESGGGLVQGGGSLRLSCAASGRTFYGYAMGWYRQAPGKERELVAAITRSGGSTYYADSVKGRFTISRDNAKKTVYLQMNILKPVDTAVYYCAAGGQARHDYWGQGTQVTVSS | low polyreactivity |
| QVQLVESGGGLVQGGGSLRLSCAASGSIFSDYAMGWYRQAPGKEREFVAPITWSGTSTYYADSVKGRFTISRYNAKNTVYLQMNSLKPEDTAGDYSAADLLFWLGLVPGTIYDEFDYWGQGTQVTVAS | low polyreactivity |
| QVQLVESGGGLVQGGGSLRLSCDASGCNFRKNAMGWYRQAPGKERDLVAAISWDGDNTYADSVKGRFTISRDNAMNNVYLQLYSLKPVYTAVSYCAAETFTYYDYWGQGTQVNVSS | high polyreactivity |
| QVQLVESGGGLVQGGGSLRLTCAASGSIFHYYAMGWYRQAPGKERELVAAINSSGGSRTYYADSVKGRFTISRDNAKNTVYLQMNSLKPEDTAVYYCAADYRVVWRAYDYWGQGTQVTVSS | low polyreactivity |
| QVQLVESGGGLVQGGGSLSLRCAASGSTFDYNAMGWYRQAPGKERDLVAVISGGSSTNYADSVKGRFTISRDNEKNTVYLQMNSLNPEDTAVYYCNARDYFVARAVSFVTYWLGVYWGQGTQVSVSS | low polyreactivity |
| QVQLVESGGGLVQPGGSLRLSCAASGGIFRSYAMGSYRQAPGKERELVAVITKSGGDTYYADSVKGRFTISRDNAKNTVYLQMNRVKPVDTAVYYCAAVYGYYTYWIPGFTWAVDYWGQGTQVTVSS | low polyreactivity |
| QVQLVESGGGLVQPGGSLRLSCAASGRIFKRNAMGCYRQAPGKERELVAAITWRGGSTYYADSVKGRFTISRDNAKNTVYLQMKSMKPEDTAVYYCNVGYGGSSDGGYDYWGHGTQVTVSS | high polyreactivity |
| QVQLVESGGGLVQPGGSLRLSCAASGRTFGSYVMGWYRQAPWKQRELVATISRRGGTTYYADSVKGRVTISRDNAKNSVYLELLSLKPVDTAVYYCADKYFGTRYDYWGQGTQVTVSS | high polyreactivity |
| QVQLVESGGGLVQPGGSLRLSCAASGRTSEIYTMGWYRPAPGKERELVASINTNSADSVKGRFTISRDNAKNTVYLQMNSLKPEDTAVYYCNADDTIEFNYWGQGTQVTVSS | low polyreactivity |

| Sequence | polyreactivity (PSR sort gate) |
| --- | --- |
| QVQLVESGGGLVQPGGSLRLSCAASGSIASYAMGWYRQAPGKERELVAGISWSGGSTYYADSVKGRFTISRDNAKNTVYLQMNSLKPEDTAVYYCNAYSAFVPPTRGYYWGQGTQVTVSS | high polyreactivity |
| QVQLVESGGGLVQPGGSLRLSCAASGSIFIGYAMGWYRQAPGKERELVASIRNGGSTNYADSVKGRFTISRDNAKNTVYLQMNSLKPEDTAVYYCAGRYPVFLVSFGFDYWGQGTQVTVSS | low polyreactivity |
| QVQLVESGGGLVQPGGSLRLSCAASGSTLRRNAMGWYRQATRIERELVSAITGSRGSTYYADSVKGRFTISLDNAKNTVYLQMNCLKPEDTAVYYCAALYYYHLLPSRYYRFVYWGQGTQVTVSS | high polyreactivity |
| QVQLVESGGGLVQPGGSLRLSCAASRSIFKVYAMGWYRQEPGKEREFVAAITSSDSNTNYADSVKGRFTISRDNAKNTVYLQMHSLKPEDTAVYYCNARIYNRRYVPHYGFNYWGQGTQVTVSS | low polyreactivity |
| QVQLVESGGGLVQPGGSLRLTCAASGGIFVTYTMGWYRQAPGKDRELVAGINSRSGSTYADSVKGGFTISRDNAKNTVYLQRTSLKLEDTAVYYCAADRIDLGRASRYGYWGQGTQVTVSS | low polyreactivity |
| QVQLVESGGGLVQSGASLRLSCAASGLIIGLYALGWYRQAPGKERELVAAISDNGARTYYADSVKGRFTISRDNAKNTVYLQMNSLKPEDTAVYYCARDQSYHYNYWGQGTQVTVSS | low polyreactivity |
| QVQLVESGGGLVQSGGILRLSCAASGSTSPIYAMGWYRQAPGTERELVAAINGVGSTNYADSVKGRFTISRDNAKTTVYFQMNSLKPADTAVYYCAADGTALHEYLGDYDYWGQGTQVTVSS | low polyreactivity |
| QVQLVESGGGLVQSGGSIRLSCAASGSTFLWYCMGWYRQAPGKERELVASISRGGGTDYADSVKGRFTISRDNAKNTVYLQMNSLKPEDTAVYYCAATGVNRYDHWGQGTHVTVSS | low polyreactivity |
| QVQLVESGGGLVQSGGSLRLICAASGRNYAMGWYRQAPGKERELVARITKSGTSTYYADSVKGRFTISRDNAKNTVYLQMNSLKPEDTAVYYCNARYWGYWGDHYDYWGQGTQVTVSS | high polyreactivity |
| QVQLVESGGGLVQSGGSLRLSCAASGGIFRYYVMGWYRQAPGKERELVAPINSGGTTYYEDSVKGRFTISRDNAKNTVYLQMNSLKPEDTAVYFCAAYYAGFGYNYWGQGTQVTVSS | low polyreactivity |
| QVQLVESGGGLVQSGGSLRLSCAASGIIFNDYAMGWYRQAPGKERELVAAISGRGGRTYYADSVKGRFTISRDNAKITVYLQMNSLKPEDTAVYYCAARVLPTDYYWGQGTQVTVSS | high polyreactivity |
| QVQLVESGGGLVQSGGSLRLSCAASGIIFQYYAMGWYRQAPGKEMELVAAITSSGGSTFYADSVKGSFTISRDNAKNTVYLQMNSLKPEDTAVYYCAAVYHRSTYDYWGQGTQVNVSS | high polyreactivity |
| QVQLVESGGGLVQSGGSLRLSCAASGLIFPYYAMGWYRQAPGKERELVAAITGNGGRTYYADSVKGRFTISRDNAKYNVYLQMNSLKPEDTAVYYCAAAGKASSDYYVLGGYWGQGTQVTVSS | high polyreactivity |
| QVQLVESGGGLVQSGGSLRLSCAASGLTFLNNALGWYRQAPGKERELVAAISDGGSPNYADSVKGRFTISRDNAKNTVFLQMNSLKPEDTAVYYCAAVYTSASYGSWGQGTQVTVSS | low polyreactivity |
| QVQLVESGGGLVQSGGSLRLSCAASGRTFFENAMGWYRPAPGKEREFVAAISYNGGSTYYADSVKGRFTISRDNAKNTVYLQMNSLKPEDTAVYYCAADPNYGYDYWGQGTQVTVSS | low polyreactivity |
| QVQLVESGGGLVQSGGSLRLSCAASGSIFWYNARGWYRQAPGKERELVAAINGGGRTYYADSVKGPFTISRDNAKNTVYLQMNSLKPEDTAVYYCAVDPISQGHMDYGGQGTQVTVSS | low polyreactivity |

Source: the nanobody polyreactivity screen of Harvey et al. (2022)
